Experimental findings from US20090048164A1 are described below.

Where two headings read alike, the source gives them in different places. Where only a bound is given, the exact number is not on record here.

In assay [1] the target is Recombinant human Bcl-xL with a 25 amino acid truncation of its C-terminus (human) (UniProt Q07817). As to the kind of experiment: competition phage ELISA. In general terms: An ELISA detects its analyte on a solid surface through an enzyme-linked reagent.
Assay [2] concerns the target mouse Mcl-1 with truncations of 151 amino acid residues at its N-terminus and 23 residues at its C-terminus (mouse) (UniProt P97287). Kind of assay: competition phage ELISA.
The target of the next assay is pro-survival proteins. As to the kind of experiment: cell-based or functional assay.
Assay [3] deals with Recombinant human Bcl-xL with a 25 amino acid truncation of its C-terminus (human) (UniProt Q07817). Kind of assay: Bim BH3 substitution scan.
Assay [4] concerns the target Bcl-2. Kind of assay: competition phage ELISA.
For assay [5], the target named is Bcl-w. Kind of assay: competition phage ELISA.
In assay [6] the target is Bcl-2. Kind of assay: Biacore competition vs immobilised BimBH3. Background: In SPR one partner is held on a chip, and binding of the other changes the refractive index at the surface.
The target in assay [7] is A1. Kind of assay: Biacore competition vs immobilised BimBH3.
For assay [8], the target named is Recombinant human Bcl-xL with a 25 amino acid truncation of its C-terminus (human) (UniProt Q07817). Kind of assay: Biacore competition vs immobilised BimBH3.
Assay [9] deals with Bcl-w. Kind of assay: Biacore competition vs immobilised BimBH3.
The target of assay [10] is mouse Mcl-1 with truncations of 151 amino acid residues at its N-terminus and 23 residues at its C-terminus (mouse) (UniProt P97287). Kind of assay: Biacore competition vs immobilised BimBH3.
The target of assay [11] is Recombinant human Bcl-xL with a 25 amino acid truncation of its C-terminus (human) (UniProt Q07817). Kind of assay: competition phage ELISA. This is another data set of the same source.
Assay [12] concerns the target A1. As to the kind of experiment: Biacore competition, synthetic peptides.
The target of assay [13] is mouse Mcl-1 with truncations of 151 amino acid residues at its N-terminus and 23 residues at its C-terminus (mouse) (UniProt P97287). Kind of assay: Biacore competition, synthetic peptides.

Sequence of Bcl-2 (P10415 1-217): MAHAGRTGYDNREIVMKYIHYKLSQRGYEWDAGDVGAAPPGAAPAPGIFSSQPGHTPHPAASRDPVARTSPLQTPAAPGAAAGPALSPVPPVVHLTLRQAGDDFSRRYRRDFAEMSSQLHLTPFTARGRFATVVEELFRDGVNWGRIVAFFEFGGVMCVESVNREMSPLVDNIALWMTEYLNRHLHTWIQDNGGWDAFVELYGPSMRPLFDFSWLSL
Sequence of mouse Mcl-1 with truncations of 151 amino acid residues at its N-terminus and 23 residues at its C-terminus (mouse) (P97287 152-308): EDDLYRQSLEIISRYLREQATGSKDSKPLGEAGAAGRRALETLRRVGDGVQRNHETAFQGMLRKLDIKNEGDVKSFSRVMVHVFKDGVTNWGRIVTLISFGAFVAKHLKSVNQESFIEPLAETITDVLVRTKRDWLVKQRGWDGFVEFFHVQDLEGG
Sequence of Bcl-w (Q92843 1-164): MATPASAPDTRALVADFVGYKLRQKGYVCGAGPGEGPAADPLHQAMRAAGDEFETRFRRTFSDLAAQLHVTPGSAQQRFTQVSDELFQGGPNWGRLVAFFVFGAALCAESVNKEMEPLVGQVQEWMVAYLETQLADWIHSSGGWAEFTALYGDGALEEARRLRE
Sequence of Recombinant human Bcl-xL with a 25 amino acid truncation of its C-terminus (human) (Q07817 1-208): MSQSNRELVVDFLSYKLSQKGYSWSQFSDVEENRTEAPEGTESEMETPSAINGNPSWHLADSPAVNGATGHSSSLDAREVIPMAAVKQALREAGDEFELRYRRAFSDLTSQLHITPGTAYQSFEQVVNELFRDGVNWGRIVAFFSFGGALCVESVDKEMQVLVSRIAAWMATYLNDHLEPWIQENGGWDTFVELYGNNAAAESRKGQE

As usually defined, the IC50 is the point on the concentration scale where inhibition reaches its midpoint. Regarding Bim BH3 E5A, phage-displayed (peptide), in [1], the Fold/wt turned out to be 1 fold and the IC50 came out at 3 nM. In assay [2], the Fold/wt was 1 fold and the IC50 turned out to be 10 nM.

With Bim BH3 A24E, phage-displayed (peptide), the Fold/wt in assay [1] and in assay [2] was 1 fold in each case. Moreover, the IC50 is 2 nM in assay [1] and 8 nM in assay [2].

With Bim BH3 R3A, phage-displayed (peptide), in [1], the Fold/wt was determined as 1 fold and the IC50 worked out at 3 nM. In assay [2], the Fold/wt amounted to 1 fold and the IC50 is 9 nM.

Take Bim BH3 W7A, phage-displayed (peptide): the Fold/wt in assay [1] and in assay [2] was 1 fold in each case. The half-inhibitory concentration (IC50) in assay [1] was 3 nM; in [2], 10 nM.

Substance wild-type full-length BimS yielded a % viability in wild-type MEFs in the assay with pro-survival proteins of 19%.

For the substance Bim BH3 L12W, phage-displayed (peptide), the fold decrease in binding affinity in [3] is 22 fold.

Turning to Bim BH3 Y22A, phage-displayed (peptide), the Fold/wt in [1] and in assay [2] was 1 fold throughout. The IC50 in assay [1] turned out to be 4 nM; in assay [2], 12 nM.

In the case of Bim BH3 I8A, phage-displayed (peptide), the Fold/wt amounted to 3 fold with Bcl-2 [4], 2 fold in assay [1], 4 fold in the assay with Bcl-w [5] and 1 fold in assay [2]. The IC50 in the assay with Bcl-2 [4] is 17 nM; in [1], 7 nM; with Bcl-w [5], 74 nM; in assay [2], 9 nM.

In [2], Bim BH3 D17A, phage-displayed (peptide) returned a Fold/wt of 28 fold, an IC50 of 256 nM and a fold effect on binding of 15 fold.

Take BimBH3 D17A synthetic peptide: the Fold/wt BimBH3 with Bcl-2 [6] came to 4 fold; in the assay with A1 [7], 1 fold; in assay [8], 3 fold; in the assay with Bcl-w [9], 30 fold; in assay [10], 2 fold.

Turning to BimBH3 I8A synthetic peptide, the Fold/wt BimBH3 with Bcl-2 [6] worked out at 3 fold; with A1 [7], 1 fold; in assay [8] it was 1 fold; with Bcl-w [9], 2 fold; in assay [10], 1 fold.

With Bim BH3 R14A, phage-displayed (peptide), in assay [1], the Fold/wt was found to be 2 fold and the IC50 turned out to be 5 nM. In assay [2], this substance showed a Fold/wt of 1 fold and an IC50 of 10 nM.

Bim BH3 R25A, phage-displayed (peptide): in assay [1], the Fold/wt came out at 1 fold and the IC50 came to 2 nM. Moreover, in [2], the Fold/wt worked out at 1 fold and the IC50 was found to be 8 nM.

Take BimBH3 L12A + F19A synthetic peptide: the Fold/wt BimBH3 with A1 [7] is 120 fold; in assay [8] it was more than 1560 fold; in [10], 1 fold.

Consider BimBH3 G16E synthetic peptide, for which the Fold/wt BimBH3 with Bcl-2 [6] was 306 fold; with A1 [7], 260 fold; in assay [8] it was 83 fold; in the assay with Bcl-w [9], more than 256 fold; in [10], 18 fold.

BimBH3 A9E synthetic peptide: the Fold/wt BimBH3 in the assay with Bcl-2 [6] was found to be 56 fold; with A1 [7] it was 7 fold; in [8], 68 fold; with Bcl-w [9], 34 fold; in assay [10], 2 fold.

In assay [2], Bim BH3 G16E, phage-displayed (peptide) returned a Fold/wt of 3 fold, an IC50 of 27 nM and a fold effect on binding of 38 fold.

Consider Bim BH3 M2A, phage-displayed (peptide), for which, in [1], the Fold/wt was 2 fold and the IC50 is 4 nM. In assay [2], this substance showed a Fold/wt of 1 fold and an IC50 of 13 nM.

On to Bim BH3 N20A, phage-displayed (peptide), for which the Fold/wt in [1] was 2 fold; in assay [2], 1 fold. Further, the results for the IC50 in assay [1] and in [2] were 5 nM and 7 nM, respectively.

Regarding Bim BH3 F19A, phage-displayed (peptide), the IC50 was 11 nM with Bcl-2 [4]; 69 nM in assay [1]; 364 nM with Bcl-w [5]; 16 nM in assay [2]; 60 nM in [11]. The Fold/wt is 24 fold in [1] and 18 fold with Bcl-w [5]. The fold weaker than wild-type BimBH3 in assay [11] was determined as 20 fold.

For Bim BH3 R13A, phage-displayed (peptide), in assay [1], the Fold/wt stood at 1 fold and the IC50 amounted to 4 nM. For the same substance, in assay [2], the Fold/wt is 1 fold and the IC50 was 13 nM.

BimS F19A had a % viability in wild-type MEFs in the assay with pro-survival proteins of 22%.

With BimS A9E, the % viability in wild-type MEFs with pro-survival proteins is 55%.

Turning to BimBH3 L12A synthetic peptide, the fold decrease in binding affinity stood at 7 fold with A1 [12] and 2 fold in [13]. Also, the Fold/wt BimBH3 came to 43 fold with Bcl-2 [6]; 17 fold with A1 [7]; 11 fold in assay [8]; 31 fold with Bcl-w [9]; 1 fold in assay [10].

Take Bim BH3 L12V, phage-displayed (peptide): in assay [3], the fold decrease in affinity was in the range of 50 to 80 fold.

For the substance Bim BH3 D1A, phage-displayed (peptide), in assay [1], the Fold/wt came to 1 fold and the IC50 turned out to be 3 nM. In assay [2], this substance displayed a Fold/wt of 1 fold and an IC50 of 10 nM.

BimS G16E displayed a % viability in wild-type MEFs with pro-survival proteins of 93%.

Regarding Bim BH3 R26A, phage-displayed (peptide), the Fold/wt in assay [1] and in assay [2] was 1 fold throughout. Moreover, the IC50 turned out to be 4 nM in assay [1] and 8 nM in assay [2].

Regarding Bim BH3 Q10A, phage-displayed (peptide), in [1], the Fold/wt came to 1 fold and the IC50 is 4 nM. Besides, in assay [2], the Fold/wt worked out at 1 fold and the IC50 stood at 10 nM.

For the substance Bim BH3 L12A, phage-displayed (peptide), the Fold/wt in assay [1] was 43 fold; with Bcl-w [5] it was 24 fold; in [2] it was 1 fold. Further, the IC50 in [1] came to 124 nM; with Bcl-w [5], 486 nM; in assay [2], 10 nM; in assay [11], 130 nM. For the same substance, in [3], the fold decrease in affinity was 50 to 80 fold. Moreover, the fold weaker than wild-type BimBH3 in assay [11] turned out to be 50 fold.

For Bim BH3 I15A, phage-displayed (peptide), the Fold/wt (with Bcl-2 [4]; in [1]; with Bcl-w [5]; in assay [2]) was 1 fold in each case. For the same substance, the IC50 with Bcl-2 [4] came out at 7 nM; in assay [1] it was 2 nM; in the assay with Bcl-w [5], 18 nM; in assay [2] it was 10 nM.

For the substance Bim BH3 I6A, phage-displayed (peptide), in [1], the Fold/wt amounted to 3 fold and the IC50 turned out to be 8 nM. Moreover, in [2], the Fold/wt worked out at 1 fold and the IC50 stood at 11 nM.

BimS L12A: in the assay with pro-survival proteins, the % viability in wild-type MEFs is 57%.

Regarding Bim BH3 Y23A, phage-displayed (peptide), in [1], the Fold/wt is 1 fold and the IC50 came to 4 nM. In assay [2], this substance registered a Fold/wt of 1 fold and an IC50 of 12 nM.

For Bim BH3 P4A, phage-displayed (peptide), in assay [1], the Fold/wt was 1 fold and the IC50 is 3 nM. Further, in [2], the Fold/wt was 1 fold and the IC50 was 12 nM.

Bim BH3 E11A, phage-displayed (peptide): the Fold/wt in assay [1] and in assay [2] was 1 fold each time. Also, the IC50 in assay [1] is 4 nM; in [2], 10 nM.

On to Bim BH3 A21E, phage-displayed (peptide), for which the Fold/wt was determined as 1 fold in assay [1] and 2 fold in assay [2]. For the same substance, the IC50 amounted to 3 nM in [1] and 16 nM in assay [2].

With BimBH3 I15A synthetic peptide, the Fold/wt BimBH3 with Bcl-2 [6] is 2 fold; with A1 [7], 2 fold; in [8], 1 fold; with Bcl-w [9], 1 fold; in assay [10], 2 fold.

In the case of “mNoxaA BH3 D26A, phage-displayed (peptide)”, in [2], the Fold/wt is 2 fold and the IC50 was 62 nM.

For the substance Bim BH3 A9E, phage-displayed (peptide), in assay [2], the Fold/wt turned out to be 3 fold and the IC50 worked out at 32 nM.

Regarding Bim BH3 E18A, phage-displayed (peptide), the values for the Fold/wt in assay [1] and in [2] were 3 fold and 9 fold, respectively. Also, the IC50 in [1] came out at 8 nM; in [2], 80 nM.

Turning to Bim BH3 L12F, phage-displayed (peptide), the fold decrease in binding affinity in assay [3] turned out to be 5 fold.
